# Data as given in US20250355001A1, “METHOD FOR DETECTING A TAU PROTEIN FRAGMENT IN A SAMPLE” (GTINVENT LIMITED, priority 2022, published 2025).
# Key:
# [1] = tested on: hT40, dGA, dGAE and truncated tau fragments; test: Binding ELISA / epitope mapping of anti-tau scAbs with truncated tau proteins and 13mer peptides; design: species or system human; conditions: for Tau proteins/fragments with positive scAb reactivity: binding ELISA; for Shortest region bound on hT40: incl. 13mer peptides; for Short epitope on hT40: Table 18, '3a' & '3b' series scAbs; for hT40 binding region: second Table 25, mAb format
# Summary of the method: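 Serially double-diluted scAbs were applied to 2% MPBS-blocked wells carrying either 1 μg/ml full-length or truncated tau, or biotinylated 13mer peptides (1 μg/ml) captured on 5 μg/ml streptavidin. Absorbance after HRP anti-human C kappa secondary gave the binding signal.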
# [2] = biological target: T1, hT40 (T441, SEQ ID NO: 1) (Homo sapiens, UniProt P10636); test: Biacore X100 SPR kinetics of scAbs for hT40; assay type: binding
# T1 construct: Full length tau (hT40)
# T1 sequence (P10636 1-441 isoform P10636-8): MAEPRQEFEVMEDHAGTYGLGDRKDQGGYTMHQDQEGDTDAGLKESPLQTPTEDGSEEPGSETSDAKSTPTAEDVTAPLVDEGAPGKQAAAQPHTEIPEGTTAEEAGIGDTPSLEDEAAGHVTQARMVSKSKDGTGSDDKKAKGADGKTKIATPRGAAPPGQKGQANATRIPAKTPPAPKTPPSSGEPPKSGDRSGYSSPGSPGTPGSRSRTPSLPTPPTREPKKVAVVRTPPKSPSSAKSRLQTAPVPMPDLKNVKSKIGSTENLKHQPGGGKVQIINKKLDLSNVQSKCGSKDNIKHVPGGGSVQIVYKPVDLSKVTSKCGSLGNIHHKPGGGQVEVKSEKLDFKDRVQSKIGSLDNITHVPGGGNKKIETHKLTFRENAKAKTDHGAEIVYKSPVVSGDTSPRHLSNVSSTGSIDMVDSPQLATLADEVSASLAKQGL
# Description: Surface plasmon resonance (SPR) is widely regarded as the gold standard for real time measurement of protein-protein interactions such as antibody binding. All SPR experiments were carried out using a Biacore X100 machine and HBS EP+ running buffer (GE Healthcare). A ‘capture’ method was followed for affinity measurements, where an anti-human constant kappa chain (HuCk) antibody was conjugated to the surface of a CM5 sensor chip using an amine coupling kit and scAb molecules were immobilised via their HuCk domain. Amine coupling is a very common approach for immobilising the ligand to the chip surface. […] The capture antibody was diluted 1/100 in 10 mM Sodium acetate buffer pH 5.0 and passed over the activated chip surface for a period of at least 420 s. Final ligand immobilisation levels over 12,000 RU were deemed to be satisfactory.
# (§1) Following immobilisation, the level of each scAb to be captured was identified using the standard SPR equation with a theoretical RMax of 100 RU. Analyte MW refers to the molecular weight of hT40 or dGA/dGAE molecules, while ligand MW refers to the molecular weight of the scAbs tested. RL is the desired capture level and S refers to the stoichiometric ratio:
# The scAb to be tested was added only to flow cell 2 so that flow cell 1 could act as a control to subtract any interaction with the analyte and the chip surface. Both single and multi-cycle runs were utilised using wizards developed in the Biacore X100 control software which are both accepted methods of kinetic analysis (Karlsson, R., et al. Analyzing a kinetic titration series using affinity biosensors (2006) Analytical Biochemistry 349:136-47). The multi-cycle protocol was as follows-Three start-up cycles composed of an initial capture, to the desired level, of the scAb to be tested was performed followed by a 30 s injection of glycine buffer pH 2.0 after each cycle to regenerate the chip surface. […] Following three start-up cycles increasing concentrations (0.15625 nM-100 nM) of the target to be tested were added to the chip surface after the desired scAb capture. The target was added for a 120 s association period and 420 s dissociation period followed by another regeneration, 30 s injection of glycine buffer pH 2.0 in between each cycle.
# (§2) The single cycle kinetics protocol was similar and utilised the same level of scAb capture. Three start-up cycles were used followed by 5 increasing concentrations of the analyte (6.25 nM-100 nM) for an association period of 120 s followed by a dissociation period of 420 s for each concentration. In single cycle kinetics the regeneration step was performed only after the final analyte concentration was added. Binding responses were analysed in Biacore X100 evaluation software and data fitted to a 1:1 binding model to obtain kinetic and affinity characterisation.
# dGA (SEQ ID NO: 5) = dGA (SEQ ID NO: 5) (Homo sapiens, UniProt P10636); test: Biacore X100 SPR kinetics of scAbs for dGA; assay type: binding; conditions: Table 24, scAb, dGA analyte
# Sequence of dGA (SEQ ID NO: 5) (P10636 614-707): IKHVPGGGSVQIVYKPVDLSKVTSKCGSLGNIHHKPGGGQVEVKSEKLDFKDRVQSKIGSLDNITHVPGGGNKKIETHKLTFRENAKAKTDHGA
# Description: Surface plasmon resonance (SPR) is widely regarded as the gold standard for real time measurement of protein-protein interactions such as antibody binding. All SPR experiments were carried out using a Biacore X100 machine and HBS EP+ running buffer (GE Healthcare). A ‘capture’ method was followed for affinity measurements, where an anti-human constant kappa chain (HuCk) antibody was conjugated to the surface of a CM5 sensor chip using an amine coupling kit and scAb molecules were immobilised via their HuCk domain. Amine coupling is a very common approach for immobilising the ligand to the chip surface. The chip surface has a dextran matrix derivatised with carboxyl groups, which after activation with N-hydroxysuccinimide (NHS) and 1-ethyl-3-(3-dimethylaminopropyl) carbodiimide (EDC), form reactive succinimide esters which allows the covalent capturing of the ligand via any available primary amine groups (e.g. Lysine) on the ligand (in this case anti-HuCk antibody). The capture antibody was diluted 1/100 in 10 mM Sodium acetate buffer pH 5.0 and passed over the activated chip surface for a period of at least 420 s. Final ligand immobilisation levels over 12,000 RU were deemed to be satisfactory.
# as §1
# The scAb to be tested was added only to flow cell 2 so that flow cell 1 could act as a control to subtract any interaction with the analyte and the chip surface. Both single and multi-cycle runs were utilised using wizards developed in the Biacore X100 control software which are both accepted methods of kinetic analysis (Karlsson, R., et al. Analyzing a kinetic titration series using affinity biosensors (2006) Analytical Biochemistry 349:136-47). The multi-cycle protocol was as follows-Three start-up cycles composed of an initial capture, to the desired level, of the scAb to be tested was performed followed by a 30 s injection of glycine buffer pH 2.0 after each cycle to regenerate the chip surface. The regeneration step removed any captured scAb whilst leaving the capture antibody intact and able to repeat the capture for the next cycle. Following three start-up cycles increasing concentrations (0.15625 nM-100 nM) of the target to be tested were added to the chip surface after the desired scAb capture. The target was added for a 120 s association period and 420 s dissociation period followed by another regeneration, 30 s injection of glycine buffer pH 2.0 in between each cycle.
# as §2
# htau40 = biological target: T2, htau40 (Homo sapiens, UniProt P10636); test: Biacore X100 SPR kinetics of anti-tau mAbs on immobilised htau40; assay type: binding
# T2 construct: Full length tau (hT40)
# T2 sequence (P10636 1-441 isoform P10636-8): as the sequence (P10636 1-441 isoform P10636-8) above
# Description: For anti-tau mAb SPR measurements, htau40 was conjugated to the surface of a CM5 sensor chip using amine coupling as explained previously. Briefly, 2 μg/mL htau40 in 10 mM Sodium acetate buffer (pH 4.0) was passed over the activated chip surface (EDC/NHS) in flow cell 2 for a period for 45 s followed by blocking with 1 M ethanolamine-HCl PH 8.5. Flow cell 1 was set up as reference control and blocked simultaneously. Final immobilisation level of htau40 (Rmax) was approximately 250 RU. Following a minimum of three start-up cycles, increasing concentrations (0.78 nM-25 nM) of the mAb in HBS-EP+ buffer was added at a rate of […] to the chip. The mAb was added for a 120 s association period and 600 s dissociation period followed by a regeneration cycle of 30 s injection of glycine buffer pH 1.5 in between each cycle. Binding responses were analysed in Biacore X100 evaluation software and data fitted to a 1:1 binding model to obtain kinetic and affinity characterisation.
# For anti-tau mAb SPR measurements (Biacore X100™) and epitope mapping, the same methodologies described above (see Example 16) were followed. Kinetic rates and equilibrium binding constants of additional anti-tau mAbs and the regions recognised on hT40 are given in the Table 25 below
# [3] = Table 26 summary, top scAbs, residues of hT40
# [4] = residue numbers of SEQ ID NO: 1 (hT40), CDR Tables 1-11
# [5] = Table 23, scAb captured, T441 (hT40) analyte, 1:1 model
# [6] = Table 27, mAb format, immobilised htau40
# [7] = Table 25, '3a' and '3b' scAbs, hT40
# [8] = second Table 25, newly converted mAbs, hT40
Molecule,"Epitope [1, 3]","Epitope [1, 4]","ka [2, 5]","kd [2, 5]",Short epitope on hT40 [1],hT40 binding region [1],"ka [2, 7]","kd [2, 7]",ka (htau40; [8]),kd (htau40; [8]),other results
"S1E12: anti-tau clone, Table 11; SEQ ID NO: 218 (protein, S1E12 amino acid sequence) scFv: QVQLQESGPSLVKPSQTLSLTCTVSGFSLGSNSVGWVRQAPGKAPEWVAGIDTDGEEGYNPALNSRLSITRDTSKSQVSLSLSSVTSEDTAVYYCGRSYRADGLAYGYVQAIDYWGPGLLVTVSSEGKSSGASGESKVDDRVVRTQPSSVSGSLGQRVSITCSGSFIGISSVGWFQQLPGSGLRTIIVASDGRPSGVPDRFSMSKSGNTATLTISSLQAEDEADYFCGSSDRTQYTGVFGSGTRLTVLG",297-390,297-390,385000 M⁻¹ s⁻¹,0.000319 s⁻¹,,,,,,,"Tau proteins/fragments with positive scAb reactivity ([1]; Table 16, NS, S and M clones): hT40, 297-390 (dGA), 297-391 (dGAE); Shortest region bound on hT40 ([1]; Table 16, NS, S and M clones): 297-390; ka (dGA (SEQ ID NO: 5)): 2.99e+06 M⁻¹ s⁻¹; Kd (dGA (SEQ ID NO: 5); dissociation rate): 0.001627 s⁻¹"
"CC7: human-specific anti-tau clone, Table 10; SEQ ID NO: 365 (protein, CC7 amino acid sequence) scFv: QVQLQESGPSLVKPSQTLSLTCTVSGFSLTSNAVIWVRQAPGKAPEWVALIDVDGDAAYDPALKSRLSITRDTSKSQVSLSLRSVTTEDTAVYYCARDYGSWGYVSDIDYWGPGLLVTVSSEGKSSGASGESKVDDRVVRTQPSSVSGSLGQRVSITCSGSYITGSSVGWFQQVPGSGLKTVIYDNNDRPSGVPDRFSGSKSGDTATLTISSLQAEDEADYYCASYDTSNIGLFGSGTRLTVLG",145-157,145-157,295700 M⁻¹ s⁻¹,0.0003659 s⁻¹,,,,,,,"Tau proteins/fragments with positive scAb reactivity ([1]; Table 17, 'C' group scAbs): hT40, 1-319; Shortest region bound on hT40 ([1]; Table 17, 'C' group scAbs): 145-157; Detection scAb (Epitope) ([1]; Table 28 (LoD table), residues of hT40): CC7 (145-157); binding region on hT40 ([1]; amino acid residues of hT40): 145-157; ka (htau40; [6]): 4.576e+06 M⁻¹ s⁻¹; kd (htau40; [6]): 0.03164 s⁻¹"
"3bG4: N-terminal anti-tau clone, Table 6; SEQ ID NO: 425 (protein, 3bG4 amino acid sequence) QVQLQESGPSLVKPSQTLSLTCTISGFSLISNGVGWVRQAPGKVPEWVGDIASSGKAYSNPALKSRLSITRDTSKSQVSLSLRSVTTEDTAVYYCVRCRDGGVTYGYDIDYWGPGLLVTVSSEGKSSGASGESKVDDQAVLTQPSSVSKSLGQSVSITCSGSTSNVGSGNDVSWFQQVPGSAPKLLFYGATNRASGVPDRFSGSRSGNTATLTITSLQAEDEADYYCGSYDSNSGGIFGSGTRLTVLG",,1-49,,,1-49,1-15,6.669e+06 M⁻¹ s⁻¹,0.05966 s⁻¹,4.54e+06 M⁻¹ s⁻¹,0.0002964 s⁻¹,"Binding region hT40 ([1]; second Table 26, own antibodies): (Binding region hT40 1-15)"
"3aG3: N-terminal anti-tau clone, Table 6; SEQ ID NO: 424 (protein, 3aG3 amino acid sequence) QVQLQESGPSLVKPSQTLSLTCTVSGFSLSSNGVGWVRQAPGKVPEWVGDISSSGKAYANPALKSRLSITRDTAKTQVFLSLSSVTTEDTAVYYCVRCRDGGVSYGYDIDYWGPGLLVTVSSEGKSSGASGESKVDDQAVLTQPPSVSGSPGQRVSITCSGSSSNIGGGNYLSWFQQVPGSAPKLLIYGATSRASGVPDRFSGSRSGNTATLTISSLQAEDEADYYCASFDTSSGGIFGAGTRLTVLG",,1-49,,,1-49,1-15,62940 M⁻¹ s⁻¹,0.0003869 s⁻¹,1.532e+07 M⁻¹ s⁻¹,0.004751 s⁻¹,
"3aH6: N-terminal anti-tau clone, Table 6; SEQ ID NO: 423 (protein, 3aH6 amino acid sequence) QVQLQESGPSLVKPSQTLSLTCTVSGFSLSSNGVGWVRQAPGKVPEWLGDISSVGKKYANPALKSRLSFTRDTSKSQVSLSLSSVTTEDTAVYYCVKCRDGGVTYGYDIDYWGPGLLVTASSEGKSSGASGESKVDDQAVVTQPSSVSGSLGQSVSITCSGSSGNVGYGDYVSWFQQFHGSAPKLLIYGATNLASGVPARFSGSRSGNTATLTISSLHAEDEADYYCASYDSSSGGVFGSGTRLTVLG",,1-49,,,1-49,1-15,2.757e+06 M⁻¹ s⁻¹,0.009868 s⁻¹,3.128e+06 M⁻¹ s⁻¹,0.0001522 s⁻¹,
